To fix the notation:
B1: Hairpin Ribozyme (parent)
chain: GUCCUCUUUCACGUGCGCGUGAAAGAGAGAAGUGAACCAGAGAAACACACGUUGUGGUAUAUUACCUGGUA

In this series the parent is B1. The series is described as follows: self-cleavage, relative activity (ratio to wild type); higher = more cleavage; co-transcriptional.
U9G G25C: the self-cleavage amounted to 0.255. The figure for U9G G25U is 0.194; for U8C C18U it is 0.779.

In the case of U8C C18A, the self-cleavage was 0.787.

In the case of U9A C38G, the self-cleavage stood at 0.145. Then U9C G27A, with 0.4. The figure for U9C G27U is 0.246; for U8G G69C it is 0.323; for U8G G69A it is 0.282. Then U8G A59C, with 0.136.

In the case of U8C U62G, the self-cleavage came out at 0.144.

Turning to U8C U62C, the self-cleavage was determined as 0.201.

Take U8C U62A: the self-cleavage was 0.192. Then U8C G54U, with 0.453; and U8C G54A, with 0.378; and U9G A49G, with 0.558. Then U8G U70A, with 0.715.

Turning to U8C U14C, the self-cleavage worked out at 0.802.

In the case of U8C U14A, the self-cleavage was 0.51. Then U9G A28G, with 1.01. Then U9G A28C, with 0.315. The figure for U8C G34C is 1.16; for U9G A41G it is 0.593; for U8G A22C it is 0.556. In the case of U9C C12G, the self-cleavage was 0.502. The figure for U9C C12A is 0.789; for U8G A30U it is 0.186; for U9G U14C it is 0.831.

For the variant U9G C66G, the self-cleavage worked out at 0.172. The figure for U9A A28U is 0.441; for U8G A71U it is 0.588; for U8G A71G it is 0.993. The figure for U9A U20C is 0.773.

For the variant U8G G17A, the self-cleavage is 0.648.

In the case of U9C A39U, the self-cleavage is 0.411. Turning to U9C A39C, the self-cleavage worked out at 0.366. Then U9C A39G, with 0.283; and U9G G21C, with 0.736; and U9G G21U, with 0.674.

C10A A23G: the self-cleavage was found to be 0.6. C10A A23U: the self-cleavage is 0.666. For the variant U9A G13U, the self-cleavage amounted to 0.479. Then U9A G19U, with 0.558. The figure for U8C G19U is 0.582; for U8C G57C it is 0.172. As for U9G U55A, the self-cleavage worked out at 0.179.

For U9G C48G, the self-cleavage was determined as 0.0994. Regarding U9G C48U, the self-cleavage is 0.158. Then U9G C48A, with 0.12; and U9A G54A, with 0.392.

As for U8G A11C, the self-cleavage stood at 0.512. On to U8G A11U, for which the self-cleavage turned out to be 0.67.

For U9C A47C, the self-cleavage is 0.149. Then C10A A36G, with 0.856. Then C10A A36U, with 0.43. The figure for U8C C65U is 0.166; for U8G U67A it is 0.145; for U8G U67G it is 0.242. For the variant U8G U67C, the self-cleavage turned out to be 0.189. The figure for U9C C18A is 0.84. Then U9C C18U, with 1.02; and U8G G25U, with 0.2. Then U8C A39C, with 0.343; and U9C G56A, with 0.171; and U9C U53C, with 0.741. For U9C U53G, the self-cleavage was determined as 1.13.

Consider U9A A45C, for which the self-cleavage came to 0.154. Regarding U9A A45U, the self-cleavage was found to be 0.152. Then U9G C50G, with 0.208; and U9G C50A, with 0.24.

Consider U9G C50U, for which the self-cleavage stood at 0.393. Then U9G G32C, with 0.0561; and U8C A49C, with 0.216. As for U8G C10A, the self-cleavage was 0.725. The figure for U8G C10U is 0.654; for U9C A41C it is 0.837. For U8G A41C, the self-cleavage stood at 0.801. The figure for U9G U62A is 0.0559. Then U9A U63A, with 0.212; and U9A U63C, with 0.205.

As to U9A U63G, the self-cleavage was 0.151. Then U9C A30U, with 0.12; and U9G G40U, with 0.086.

With U9G G40A, the self-cleavage was found to be 0.179. The figure for U9G G34A is 0.8.

Regarding U9G G34C, the self-cleavage came out at 0.833. Then U9G A43U, with 0.111; and U9G A43G, with 0.116. The figure for U9A G15C is 0.727; for U8C G32U it is 0.0859. Take U8G A39C: the self-cleavage worked out at 0.406. In the case of U8G A39U, the self-cleavage was 0.288. Then C10A A11G, with 0.644; and C10A A11C, with 0.624. Then U9C A44C, with 0.183; and U9C G40U, with 0.169.

Take U9C G40C: the self-cleavage was 0.136. The figure for U8C G15A is 0.743. Then U8G G40U, with 0.132; and U8C G13C, with 0.834. Then U8G G19U, with 0.332; and U8G G19A, with 0.533.

On to U9G A30G, for which the self-cleavage stood at 0.0174. Take U8G A35U: the self-cleavage is 0.673.

For U9C U52A, the self-cleavage worked out at 0.895. Then U8C A45C, with 0.065; and U8C A45U, with 0.257; and U9A C16U, with 0.624. For the variant U9A C16A, the self-cleavage came to 0.626. The figure for U8G G56C is 0.0783. Then U8G G56A, with 0.11; and U8C A71C, with 1.11.

On to U8C A71U, for which the self-cleavage turned out to be 0.569. Then U9C U20G, with 0.503; and U9G C46G, with 0.161; and U9G C46A, with 0.204. The figure for U9G C46U is 0.0772; for U8G C37A it is 0.218; for U9C C37A it is 0.355. The figure for U9A C66G is 0.0453; for U8G G54A it is 0.456. U8G G54C: the self-cleavage was found to be 0.313. The figure for U9A U58C is 0.72; for U8C U53A it is 0.674; for U8C U53G it is 0.509.

Take U8C A35U: the self-cleavage was 0.679. Then U8C A35C, with 0.876; and U9A G40U, with 0.119. For the variant U9A G40A, the self-cleavage came to 0.262. Then C10A A47G, with 0.2; and U8G G51C, with 0.665. On to U8C A47G, for which the self-cleavage was determined as 0.147. The figure for U9C A24G is 0.844; for U9C A24C it is 0.657; for U9A A39G it is 0.201. Then U8C C37A, with 0.214; and U9G U53G, with 0.656; and U8G A47G, with 0.0909. The figure for U9G A31U is 0.1; for U9C G42C it is 0.264.

Consider U9A G32C, for which the self-cleavage came out at 0.178. Consider U9A G32U, for which the self-cleavage is 0.135.

Regarding U8C U55C, the self-cleavage turned out to be 0.132. Then U8C G27U, with 0.158; and U8G C65G, with 0.275. Then U9C G69A, with 0.357; and U9C G69C, with 0.136; and U9C U14G, with 0.754. The figure for U9C A11C is 0.592; for U9A A24G it is 0.461; for U9A U67A it is 0.147.

On to U9A U67G, for which the self-cleavage came to 0.152. The figure for C10A A30U is 0.156; for C10A A30C it is 0.122; for C10A A30G it is 0.131. Then U9A C18G, with 0.617; and U9A C18A, with 0.855. Then U8C U52G, with 0.709. In the case of U8C U52C, the self-cleavage is 0.405. Then U8C C10A, with 0.363; and U9G U60C, with 1.04; and U9G U60A, with 0.645. Regarding U9G A11G, the self-cleavage was found to be 0.551. The figure for U9C U70C is 0.492. Then U9A A11U, with 0.541; and U9A A11G, with 0.473.

For the variant U9A A11C, the self-cleavage was 0.478.

Source of the values: the RNAGym collection of RNA variant scans (doi:10.7554/elife.80360).
